Laboratory results taken from US20180057604A1 (Genentech, published 2018).
One block for each binder: values may come before it.

Assays:
[1] = molecular target: BACE1 (HTRF long substrate and FRET short substrate assays of Example 9D); assay: cell-based or functional assay
[2] = molecular target: BACE1 in primary mouse cortical neurons (mouse, UniProt P56818 46-501); assay: cell-based or functional assay
human BACE1 ECD [3] = molecular target: T1, human BACE1 ECD; assay: Octet, pH 5.0;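 further: antibodies captured on anti-human capture sensor tips, dissociation monitored in PBS with BSA buffer, kinetics fitted with a one-to-one binding model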
T1 construct: analyte of the Octet assay (200 nM) and enzyme of the first short substrate assay; also called human BACE1 extracellular domain

human BACE1 ECD [4] = molecular target: T1, human BACE1 ECD; assay: Octet, pH 7.5;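 further: antibodies captured on anti-human capture biosensor tips, dissociation followed in PBS with BSA buffer, kinetics fitted with a one-to-one binding model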
murine BACE1 ECD = molecular target: T2, murine BACE1 ECD; assay: Octet, pH 7.5;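 further: antibodies captured on anti-human capture biosensor tips, dissociation followed in PBS with BSA buffer, kinetics fitted with a one-to-one binding model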
T2 construct: analyte of the Octet assay (200 nM) and enzyme of the first short substrate assay

[5] = molecular target: T3, human TfR extracellular domain with N-terminal His tag (human, UniProt P02786 89-760); assay: ELISA, IgG;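 further: ELISA of IgG-containing supernatants tested in 1:5 serial dilutions for 1 h, bound antibody read out with HRP anti-kappa antibody and TMB substrate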
T3 construct: Biotinylated in some assays; also called huTfR; HuTfR

[6] = molecular target: T4, cyno TfR extracellular domain (analogous construct to human TfR ecd) (cynomolgus monkey, UniProt Q5RDH6 87-760 (Pongo abelii entry)); assay: ELISA, IgG;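 further: ELISA of IgG-containing supernatants tested in 1:5 serial dilutions for 1 h, bound antibody read out with HRP anti-kappa antibody and TMB substrate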
T4 construct: also called cynoTfR ecd
T4 chain: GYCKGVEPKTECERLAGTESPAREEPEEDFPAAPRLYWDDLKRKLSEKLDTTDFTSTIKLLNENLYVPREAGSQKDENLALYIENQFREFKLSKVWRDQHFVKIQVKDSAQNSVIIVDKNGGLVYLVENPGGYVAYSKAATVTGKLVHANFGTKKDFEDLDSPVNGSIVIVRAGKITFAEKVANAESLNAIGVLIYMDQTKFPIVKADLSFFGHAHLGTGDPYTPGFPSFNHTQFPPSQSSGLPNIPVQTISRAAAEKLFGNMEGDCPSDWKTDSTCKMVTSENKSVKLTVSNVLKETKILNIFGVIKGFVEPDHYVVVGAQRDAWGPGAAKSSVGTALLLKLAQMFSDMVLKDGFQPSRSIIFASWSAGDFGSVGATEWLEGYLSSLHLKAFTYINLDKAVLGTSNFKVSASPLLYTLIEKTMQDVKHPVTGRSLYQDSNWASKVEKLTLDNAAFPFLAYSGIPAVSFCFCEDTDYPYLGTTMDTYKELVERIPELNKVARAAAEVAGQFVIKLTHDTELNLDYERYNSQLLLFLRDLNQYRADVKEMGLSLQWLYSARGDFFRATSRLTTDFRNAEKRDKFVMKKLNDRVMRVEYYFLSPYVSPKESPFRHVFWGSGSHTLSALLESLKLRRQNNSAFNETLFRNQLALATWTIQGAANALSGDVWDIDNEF

[7] = molecular target: T3, human TfR extracellular domain with …; assay: SPR, TfR captured by anti-His, Fab injected;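 further: single cycle kinetics with a Fab dilution series, fitted by a one-to-one Langmuir model or a steady state model, KD taken as koff over kon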
[8] = molecular target: T4, cyno TfR extracellular domain …; assay: SPR, TfR captured by anti-His, Fab injected;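 further: single cycle kinetics with a Fab dilution series, fitted by a one-to-one Langmuir model or a steady state model, KD taken as koff over kon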

Sequence of BACE1 in primary mouse cortical neurons (P56818 46-501): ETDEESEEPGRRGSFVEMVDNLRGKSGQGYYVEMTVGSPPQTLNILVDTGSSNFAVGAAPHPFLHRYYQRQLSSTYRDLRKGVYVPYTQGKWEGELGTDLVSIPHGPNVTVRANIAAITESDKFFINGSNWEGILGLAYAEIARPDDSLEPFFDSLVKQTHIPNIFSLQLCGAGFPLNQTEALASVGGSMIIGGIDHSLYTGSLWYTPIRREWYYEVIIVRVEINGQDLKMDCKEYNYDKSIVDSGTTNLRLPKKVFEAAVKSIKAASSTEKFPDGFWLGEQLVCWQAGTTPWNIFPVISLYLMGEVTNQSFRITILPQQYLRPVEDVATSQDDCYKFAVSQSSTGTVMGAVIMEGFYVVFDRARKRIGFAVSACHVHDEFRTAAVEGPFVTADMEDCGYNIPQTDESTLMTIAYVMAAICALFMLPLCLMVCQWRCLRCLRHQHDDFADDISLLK
T3 sequence (P02786 89-760 G142S): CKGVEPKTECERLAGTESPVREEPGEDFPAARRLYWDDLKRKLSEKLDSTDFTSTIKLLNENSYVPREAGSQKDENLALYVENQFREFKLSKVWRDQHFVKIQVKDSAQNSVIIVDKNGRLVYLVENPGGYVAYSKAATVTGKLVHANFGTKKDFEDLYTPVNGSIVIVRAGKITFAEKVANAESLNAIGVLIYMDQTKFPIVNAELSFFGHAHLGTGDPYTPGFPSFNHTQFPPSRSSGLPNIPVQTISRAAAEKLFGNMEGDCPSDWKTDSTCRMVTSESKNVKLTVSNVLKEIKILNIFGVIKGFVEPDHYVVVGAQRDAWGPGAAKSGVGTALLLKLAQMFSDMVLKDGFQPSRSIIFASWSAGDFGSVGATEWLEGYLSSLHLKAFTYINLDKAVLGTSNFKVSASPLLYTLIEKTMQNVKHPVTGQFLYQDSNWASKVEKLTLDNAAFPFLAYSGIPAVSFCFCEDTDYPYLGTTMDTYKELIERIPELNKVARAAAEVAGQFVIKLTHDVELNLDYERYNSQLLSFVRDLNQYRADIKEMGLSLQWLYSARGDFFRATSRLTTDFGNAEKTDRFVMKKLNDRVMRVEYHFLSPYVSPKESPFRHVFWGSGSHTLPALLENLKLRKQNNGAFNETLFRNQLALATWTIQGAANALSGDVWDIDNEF
T1 sequence (single chain, as listed by the source limits assumed): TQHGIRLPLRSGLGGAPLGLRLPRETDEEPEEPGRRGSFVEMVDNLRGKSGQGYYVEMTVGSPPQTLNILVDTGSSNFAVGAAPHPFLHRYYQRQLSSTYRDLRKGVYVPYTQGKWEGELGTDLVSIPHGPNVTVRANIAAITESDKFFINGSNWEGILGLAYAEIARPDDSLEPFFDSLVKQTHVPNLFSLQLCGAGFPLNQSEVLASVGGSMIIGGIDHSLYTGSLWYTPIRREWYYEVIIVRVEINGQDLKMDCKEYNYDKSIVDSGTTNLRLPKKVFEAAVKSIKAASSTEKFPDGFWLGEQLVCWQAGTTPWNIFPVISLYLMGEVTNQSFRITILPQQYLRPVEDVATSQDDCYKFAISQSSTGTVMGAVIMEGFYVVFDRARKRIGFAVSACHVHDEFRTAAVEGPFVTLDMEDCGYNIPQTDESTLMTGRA
T2 sequence (single chain, as listed by the source limits assumed): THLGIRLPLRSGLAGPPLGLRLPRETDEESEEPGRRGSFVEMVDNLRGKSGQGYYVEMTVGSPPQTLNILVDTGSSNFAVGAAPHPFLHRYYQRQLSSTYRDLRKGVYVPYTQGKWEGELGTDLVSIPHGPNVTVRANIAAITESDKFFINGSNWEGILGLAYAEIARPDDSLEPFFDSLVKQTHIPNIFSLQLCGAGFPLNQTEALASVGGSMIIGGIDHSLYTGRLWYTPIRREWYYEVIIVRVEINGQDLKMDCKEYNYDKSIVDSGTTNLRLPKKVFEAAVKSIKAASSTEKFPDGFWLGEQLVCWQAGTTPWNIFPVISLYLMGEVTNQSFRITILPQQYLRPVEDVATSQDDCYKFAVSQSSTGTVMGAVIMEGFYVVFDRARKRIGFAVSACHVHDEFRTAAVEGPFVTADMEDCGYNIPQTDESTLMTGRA

- EC50, FRET short substrate [1]: 3.12 nM
- EC50, HTRF long substrate [1]: 1.38 nM
- IC50, Abeta x-40 in mouse cortical neurons [2]: 1.63 nM
- IC50, Abeta x-40 in mouse cortical neurons (5903*, second run) [2]: 7.27 nM
- maximal % inhibition of Abeta x-40 [2]: 72%
B1: 5903 (antibody, V domains shown)
VH: QLQLQESGPGLVKPSETLSLTCTVSGGSISSSSYYWGWIRQPPGKGLEWIGMIYYSGSTWYNPSLKSRVTISVDTSKNQFSLKLSSVTAADTAVYYCARVGHGISYFDLWGRGTLVTVSS
VL: EIVLTQSPATLSLSPGERATLSCRASQSVSSYLAWYQQKPGQAPRLLIYDASKRATGIPARFSGSGSGTDFTLTISSLEPEDFAVYYCQQVYTWPPRTFGGGTKVEIK

- Kd (human BACE1 ECD [3]): 0.34 nM
- Kd (human BACE1 ECD [4]): 0.35 nM
- Kd (murine BACE1 ECD): < 0.24 nM
- IC50, Abeta x-40 in mouse cortical neurons [2]: 7.34 nM
- maximal % inhibition of Abeta x-40 [2]: 72%
B2: 5983 (antibody, V domains shown)
VH: QLQLQESGPGLVKPSETLSLTCTVSGGSISSSSYYWGWIRQPPGKGLEWIGNIYYSGSTYYNPSLRSRVTISVDTSKNQFFLKLSSVTAADTAVYYCARLGHGYNYFDLWGRGTLVTVSS
VL: EIVLTQSPATLSLSPGERATLSCRASQSVSSYLAWFQQKPGQAPRLLIYDASNRATGIPARFSGSGSGTDFTLTISSLEPEDFAVYYCQQVYVWPPRTFGGGTKVEIK
notes: anti-BACE1 IgG

- EC50 [5]: 0.0173 µg/mL
- EC50 [6]: 0.0185 µg/mL
B3: D101A (antibody, V domains shown)
VH: EVQLVQSGAEVKKPGASVKVSCKGSGYTFTDYAMHWVRQAPGQGLEWMGGISTYFGRTNYNQKFKGRVTMTVDTSISTAYMELSRLRSDDTAVYYCARGLSGNYVMAYWGQGTTVTVSS
VL: DIVMTQSPDSLAVSLGERATINCRASESVDSYGNSFMHWYQQKPGQPPKLLIYRASNLESGVPDRFSGSGSRTDFTLTISSLQAEDVAVYYCQQSNEAPPTFGQGTKLEIK
notes: also called 7A4.v15 D101A (CDR-H3) IgG; copies: 2 + 2

- Kd [7]: 0.401 nM
- koff [7]: 0.000686 s⁻¹
- kon [7]: 1.71e+06 M⁻¹ s⁻¹
- Kd [8]: 4.23 nM
- koff [8]: 0.00342 s⁻¹
- kon [8]: 808000 M⁻¹ s⁻¹
B4: Hu7A4.v9.Fab (Fab, V domains shown)
VH: EVQLVQSGAEVKKPGASVKVSCKASGYTFTDYAMHWVRQAPGQGLEWMGGISTYFGRTNYNQKFKGRVTMTRDTSISTAYMELSRLRSDDTAVYYCARGLSGNYVMDYWGQGTTVTVSS
VL: DIVMTQSPDSLAVSLGERATINCRASESVDSYGNSFMHWYQQKPGQPPKLLIYRASNLESGVPDRFSGSGSRTDFTLTISSLQAEDVAVYYCQQSNEGPPTFGQGTKLEIK
notes: Fab

- EC50 [5]: 0.01 µg/mL
- EC50 [6]: 0.0162 µg/mL
B5: P96A (antibody, V domains shown)
VH: EVQLVQSGAEVKKPGASVKVSCKGSGYTFTDYAMHWVRQAPGQGLEWMGGISTYFGRTNYNQKFKGRVTMTVDTSISTAYMELSRLRSDDTAVYYCARGLSGNYVMDYWGQGTTVTVSS
VL: DIVMTQSPDSLAVSLGERATINCRASESVDSYGNSFMHWYQQKPGQPPKLLIYRASNLESGVPDRFSGSGSRTDFTLTISSLQAEDVAVYYCQQSNEAPATFGQGTKLEIK
notes: also called 7A4.v15 P96A (CDR-L3) IgG

- EC50 [5]: 0.0109 µg/mL
- EC50 [6]: 0.0138 µg/mL
B6: Q89A (antibody, V domains shown)
VH: EVQLVQSGAEVKKPGASVKVSCKGSGYTFTDYAMHWVRQAPGQGLEWMGGISTYFGRTNYNQKFKGRVTMTVDTSISTAYMELSRLRSDDTAVYYCARGLSGNYVMDYWGQGTTVTVSS
VL: DIVMTQSPDSLAVSLGERATINCRASESVDSYGNSFMHWYQQKPGQPPKLLIYRASNLESGVPDRFSGSGSRTDFTLTISSLQAEDVAVYYCAQSNEAPPTFGQGTKLEIK
notes: also called 7A4.v15 Q89A (CDR-L3) IgG

- EC50 [5]: 0.0122 µg/mL
- EC50 [6]: 0.0176 µg/mL
B7: E93A (antibody, V domains shown)
VH: EVQLVQSGAEVKKPGASVKVSCKGSGYTFTDYAMHWVRQAPGQGLEWMGGISTYFGRTNYNQKFKGRVTMTVDTSISTAYMELSRLRSDDTAVYYCARGLSGNYVMDYWGQGTTVTVSS
VL: DIVMTQSPDSLAVSLGERATINCRASESVDSYGNSFMHWYQQKPGQPPKLLIYRASNLESGVPDRFSGSGSRTDFTLTISSLQAEDVAVYYCQQSNAAPPTFGQGTKLEIK
notes: also called 7A4.v15 E93A (CDR-L3) IgG

- EC50 [5]: 0.0161 µg/mL
- EC50 [6]: 0.0169 µg/mL
B8: M100bA (antibody, V domains shown)
VH: EVQLVQSGAEVKKPGASVKVSCKGSGYTFTDYAMHWVRQAPGQGLEWMGGISTYFGRTNYNQKFKGRVTMTVDTSISTAYMELSRLRSDDTAVYYCARGLSGNYVADYWGQGTTVTVSS
VL: DIVMTQSPDSLAVSLGERATINCRASESVDSYGNSFMHWYQQKPGQPPKLLIYRASNLESGVPDRFSGSGSRTDFTLTISSLQAEDVAVYYCQQSNEAPPTFGQGTKLEIK
notes: also called 7A4.v15 M100bA (CDR-H3) IgG; copies: 2 + 2

- EC50 [5]: 0.0155 µg/mL
- EC50 [6]: 0.0287 µg/mL
B9: L96A (antibody, V domains shown)
VH: EVQLVQSGAEVKKPGASVKVSCKGSGYTFTDYAMHWVRQAPGQGLEWMGGISTYFGRTNYNQKFKGRVTMTVDTSISTAYMELSRLRSDDTAVYYCARGASGNYVMDYWGQGTTVTVSS
VL: DIVMTQSPDSLAVSLGERATINCRASESVDSYGNSFMHWYQQKPGQPPKLLIYRASNLESGVPDRFSGSGSRTDFTLTISSLQAEDVAVYYCQQSNEAPPTFGQGTKLEIK
notes: also called 7A4.v15 L96A (CDR-H3) IgG; copies: 2 + 2

- EC50 [5]: 0.0135 µg/mL
- EC50 [6]: 0.0418 µg/mL
B10: G95A (antibody, V domains shown)
VH: EVQLVQSGAEVKKPGASVKVSCKGSGYTFTDYAMHWVRQAPGQGLEWMGGISTYFGRTNYNQKFKGRVTMTVDTSISTAYMELSRLRSDDTAVYYCARALSGNYVMDYWGQGTTVTVSS
VL: DIVMTQSPDSLAVSLGERATINCRASESVDSYGNSFMHWYQQKPGQPPKLLIYRASNLESGVPDRFSGSGSRTDFTLTISSLQAEDVAVYYCQQSNEAPPTFGQGTKLEIK
notes: also called 7A4.v15 G95A (CDR-H3) IgG; copies: 2 + 2

- EC50 [5]: 0.0087 µg/mL
- EC50 [6]: 0.0137 µg/mL
B11: N92A (antibody, V domains shown)
VH: EVQLVQSGAEVKKPGASVKVSCKGSGYTFTDYAMHWVRQAPGQGLEWMGGISTYFGRTNYNQKFKGRVTMTVDTSISTAYMELSRLRSDDTAVYYCARGLSGNYVMDYWGQGTTVTVSS
VL: DIVMTQSPDSLAVSLGERATINCRASESVDSYGNSFMHWYQQKPGQPPKLLIYRASNLESGVPDRFSGSGSRTDFTLTISSLQAEDVAVYYCQQSAEAPPTFGQGTKLEIK
notes: also called 7A4.v15 N92A (CDR-L3) IgG

- Kd [7]: 0.255 nM
- koff [7]: 0.000844 s⁻¹
- kon [7]: 3.32e+06 M⁻¹ s⁻¹
- Kd [8]: 1.9 nM
- koff [8]: 0.00331 s⁻¹
- kon [8]: 1.74e+06 M⁻¹ s⁻¹
B12: Hu7A4.v12.Fab (Fab, V domains shown)
VH: EVQLVQSGAEVKKPGASVKVSCKGSGYTFTDYAMHWVRQAPGQGLEWMGGISTYFGRTNYNQKFKGRVTMTVDTSISTAYMELSRLRSDDTAVYYCARGLSGNYVMDYWGQGTTVTVSS
VL: DIVMTQSPDSLAVSLGERATINCRASESVDSYGNSFMHWYQQKPGQPPKLLIYRASNLESGVPDRFSGSGSRTDFTLTISSLQAEDVAVYYCQQSNEGPPTFGQGTKLEIK
notes: Fab

- EC50 [5]: 0.0097 µg/mL
- EC50 [6]: 0.0159 µg/mL
B13: P95A (antibody, V domains shown)
VH: EVQLVQSGAEVKKPGASVKVSCKGSGYTFTDYAMHWVRQAPGQGLEWMGGISTYFGRTNYNQKFKGRVTMTVDTSISTAYMELSRLRSDDTAVYYCARGLSGNYVMDYWGQGTTVTVSS
VL: DIVMTQSPDSLAVSLGERATINCRASESVDSYGNSFMHWYQQKPGQPPKLLIYRASNLESGVPDRFSGSGSRTDFTLTISSLQAEDVAVYYCQQSNEAAPTFGQGTKLEIK
notes: also called 7A4.v15 P95A (CDR-L3) IgG

- EC50 [5]: 0.0194 µg/mL
- EC50 [6]: 0.0247 µg/mL
B14: G98A (antibody, V domains shown)
VH: EVQLVQSGAEVKKPGASVKVSCKGSGYTFTDYAMHWVRQAPGQGLEWMGGISTYFGRTNYNQKFKGRVTMTVDTSISTAYMELSRLRSDDTAVYYCARGLSANYVMDYWGQGTTVTVSS
VL: DIVMTQSPDSLAVSLGERATINCRASESVDSYGNSFMHWYQQKPGQPPKLLIYRASNLESGVPDRFSGSGSRTDFTLTISSLQAEDVAVYYCQQSNEAPPTFGQGTKLEIK
notes: also called 7A4.v15 G98A (CDR-H3) IgG; copies: 2 + 2

- Kd [7]: 7.26 nM
- koff [7]: 0.00466 s⁻¹
- kon [7]: 642000 M⁻¹ s⁻¹
- Kd [8]: 41.6 nM
- koff [8]: 0.0201 s⁻¹
- kon [8]: 483000 M⁻¹ s⁻¹
B15: Hu15G11.v3.Fab (Fab, V domains shown)
VH: EVQLVQSGAEVKKPGASVKVSCKASGYTFTSYWMHWVRQAPGQRLEWMGEINPTNGRTNYIEKFKSRVTITRDTSASTAYMELSSLRSEDTAVYYCARGTRAYHYWGQGTMVTVSS
VL: DIQMTQSPSSLSASVGDRVTITCRASDNLYSNLAWYQQKPGKSPKLLVYDATNLADGVPSRFSGSGSGTDYTLTISSLQPEDFATYYCQHFWGTPLTFGQGTKVEIK
notes: Fab
